# From patent US20240398906A1 (YEDA RESEARCH AND DEVELOPMENT, published 2024)
# Several values for one entry are separate records, joined by “and”; a condition that tells them apart may be missing. Identical values can stand only once.
# T1: recombinant catalytic domain of human LOX (169-417) (human, UniProt P28300 169-417)
# T1 construct: also called LOX-catalytic domain; recombinant LOX
# T1 sequence: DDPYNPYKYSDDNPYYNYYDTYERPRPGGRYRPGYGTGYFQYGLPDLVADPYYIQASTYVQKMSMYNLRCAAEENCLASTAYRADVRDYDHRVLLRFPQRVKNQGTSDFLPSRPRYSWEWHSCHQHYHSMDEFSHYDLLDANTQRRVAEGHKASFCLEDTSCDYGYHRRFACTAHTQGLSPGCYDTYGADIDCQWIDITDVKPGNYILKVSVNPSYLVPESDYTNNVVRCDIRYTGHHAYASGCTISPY
# Assays:
# recombinant HSP70 = target: T2, recombinant HSP70 (UniProt P0DMV8 1-641, limits assumed); experiment: ELISA, plate coated with recombinant HSP70, detection with anti-human peroxidase antibody
# T2 construct: Purified on a HisTrap column; also called heat shock protein 70
# T2 sequence (P0DMV8 whole entry): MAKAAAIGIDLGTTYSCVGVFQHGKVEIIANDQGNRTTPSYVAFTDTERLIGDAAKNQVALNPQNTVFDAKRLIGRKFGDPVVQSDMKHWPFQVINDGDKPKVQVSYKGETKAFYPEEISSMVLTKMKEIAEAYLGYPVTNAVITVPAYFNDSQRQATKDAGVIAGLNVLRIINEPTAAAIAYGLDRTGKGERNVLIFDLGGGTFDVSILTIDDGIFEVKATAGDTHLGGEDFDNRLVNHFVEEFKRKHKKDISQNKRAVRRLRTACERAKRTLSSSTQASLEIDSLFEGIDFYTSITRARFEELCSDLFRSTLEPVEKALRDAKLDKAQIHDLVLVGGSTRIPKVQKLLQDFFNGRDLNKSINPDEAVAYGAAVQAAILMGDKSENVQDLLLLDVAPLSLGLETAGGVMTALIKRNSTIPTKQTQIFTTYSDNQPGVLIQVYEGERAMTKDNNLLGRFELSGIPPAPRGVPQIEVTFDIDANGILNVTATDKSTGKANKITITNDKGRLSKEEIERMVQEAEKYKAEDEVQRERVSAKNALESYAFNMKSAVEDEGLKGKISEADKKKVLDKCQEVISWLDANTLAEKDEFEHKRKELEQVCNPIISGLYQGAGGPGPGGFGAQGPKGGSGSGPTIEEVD
# Description: (§1) ELISA binding assay: A ninety-six-well plate (Nunc) was coated with LOX-catalytic domain, HSP70 or BSA at 10 μg/ml. After blocking with 2% BSA in PBS, the plate was incubated with the antibodies for 1 h at 37° C. Bound antibodies were detected by peroxidase-conjugated antibody goat anti-human (Jackson ImmunoResearch). EC₅₀ was calculated with GraphPad Prism from […] curve fitting analysis.
# [1] = target: T1, recombinant catalytic domain of human …; experiment: ELISA, plate coated with LOX catalytic domain, detection with anti-human peroxidase antibody
# Description: as §1
# [2] = target: T1, recombinant catalytic domain of human …; experiment: binding affinity against LOX; ELISA according to paragraph 88
# [3] = target: T1, recombinant catalytic domain of human …; experiment: dissociation constant against LOX; microscale thermophoresis according to paragraph 89
binder,measurement,setting,value
"AS1 (glycosylated LOX-PP fused to human IgG1 Fc) (Fc fusion, N-glycosylated on N81, N97 and N144 (precursor numbering; positions 60, 76 and 123 of the piece). Disulfide-linked dimer through the Fc hinge., also called AS1 decoy; not shown: Human IgG1 Fc (hinge-CH2-CH3), its orientation relative to LOX-PP and any linker) APPAAGQQQPPREPPAAPGAWRQQIQWENNGQVFSLLSLGSQYQPQRRRDPGAAVPGAANASAQQPRTPILLIRDNRTAAARTRTAGSSGVTAGRPRPTARHWFQAGYSTSRAREAGASRAENQTAPGEVPALSNLRPPSRVDGMVG",EC50,recombinant HSP70,41 nM
same,EC50,[1],43 nM
Fc-LPD (Fc fusion) APPAAGQQQPPREPPAAPGAWRQQIQWENNGQVFSLLSLGSQYQPQRRRDPGAAVPGAANASAQQPRTPILLIRDNRTAAARTRTAGSSGVTAGRPRPTARHWFQAGYSTSRAREAGASRAENQTAPGEVPALSNLRPPSRVDGMVG,EC50,[2],40 nM and 43 nM
same,Kd,[3],32 nM
